Data taken from paper PMC3190738.

The substances below were run against His-tagged-YFP-PKI-NES (assay: fluorescence polarisation).
“CRM1 1–1062 + VLV > AAA (from UniProt Q6P5F9 1-1062) (domain or fragment)” was tested, and the Kd was 25 nM.
“CRM1 HEAT 9 loop variant (VLV > AAA) (from UniProt Q6P5F9 1-1071) (natural protein)” gave a Kd of 200 nM.
For “CRM1-1–1062 (from UniProt Q6P5F9 1-1062) (domain or fragment)”, the Kd was 1700 nM.
For “wild type mouse CRM1 (1–1071) (from UniProt Q6P5F9 1-1071) (natural protein)”, the Kd was 15600 nM.
